Read-outs that look alike come from different tables or passages of the source.

Regarding “PFKP (phosphofructokinase, platelet isoform): S386A”, the degradation_or_half_life entry (phosphorylation at S386) is “no change”. For the substance “PFKL (phosphofructokinase, liver isoform): K272R”, under “ubiquitination at K272”, the degradation_or_half_life result is “decreases”.

For the substance “PFKP (phosphofructokinase, platelet isoform): AKT inhibitor X (10 μM, 15 hrs)”, the expression_or_secretion result (phosphorylation at S386) is reported as “no change”. In the case of “PFKP (phosphofructokinase, platelet isoform): K281R”, the degradation_or_half_life entry (ubiquitination at K281) is reported as “decreases”.
